Experimental data as given in the nanobody polyreactivity screen of Harvey et al. (2022).

Assay: yeast display, Sf9 membrane polyspecificity reagent, FACS + sequencing; frameworks hold sequencing errors
Method in brief: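 Genes from sorted yeast were amplified by colony PCR, read by MiSeq 2 × 250 sequencing and filtered on CDR length. These cells carried a synthetic nanobody library in Saccharomyces cerevisiae BJ5465 and were sorted by FACS into low and high (top ~1%) gates on anti-HA and streptavidin fluorescence. Polyreactivity is labelled according to the gate of origin.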

Sequence	polyreactivity (PSR sort gate)
QVQLVESGGGLVQAGGSLRLSCAASGFIFSRYGMGWYRQAPGKERELVAAISRSGGSTYYADSVKGRFTISRDNAKNTVYLQMNSLKPEDTAVYYCATAYSWRNADRFAYSYDYWGQGTQVTVSS	low polyreactivity
QVQLVESGGGLVQAGGSLRLSCAASGFIFSSYAMGWYRPAPGKERELVAAISKSGDRTSYADSVKGRFTISRDNAKNTVYLQMNSLKPEDTAVYYCNAKYWGYSHHVIWYDYWGQGTQVTVSS	high polyreactivity
QVQLVESGGGLVQAGGSLRLSCAASGFIFSSYAMGWYRQAPGKERELVAAITSGGSTNYADSVKGRFTISRDNAKNTVYLQMNSLKPEDTAVYYCAADGVASLFGDPPTEFDYWGQGTQVTVSS	low polyreactivity
QVQLVESGGGLVQAGGSLRLSCAASGFIFSSYAMGWYRQAPGKERELVAAITSGGSTYYADSVKGRFTISRDNAKNTVYLQMNSLKPEDTAVYYCAADHWDGQYWFDYWGQGTQVTVSS	low polyreactivity
QVQLVESGGGLVQAGGSLRLSCAASGFIFSSYAMGWYSQAPGKERDLGAAISKSGDRTSYADSVKGRFTISRDNAKNTVYLQMNSLKPEDTAVYYCAKDRLYRTKKYRDMYYWGQGTQVTVSS	high polyreactivity
QVQLVESGGGLVQAGGSLRLSCAASGFIFSTNAMGWYRQAPGKERELVAAISASGGITYYADSVKGRFTISRDNAKNTVYLQMNSLKPEDTAVYYCAVYYYSPGNNIYGYWGQGTQVTVSS	high polyreactivity
QVQLVESGGGLVQAGGSLRLSCAASGFIFSTNAMGWYRQAPGKERELVAVINGGGSTYYADSVKGRFTISRDNAKNTVYLQLNSLKPEDTAVYNCARKSWPKEGRVDPGYDYWGQGTQVTVSS	low polyreactivity
QVQLVESGGGLVQAGGSLRLSCAASGFIFSTYAMGWYRQAPGKERELVAAITRTGTRTYYADSVKGRFTISRDNAKNTVYLQMNSLKPEDTAVYYCAARAGGEAYGSRYGYWGQGTQVTVSS	high polyreactivity
QVQLVESGGGLVQAGGSLRLSCAASGFIFSTYAMGWYRQAPGKERELVASTSRRAGRTYYADSVKGRFTISRDNAKNTVYLQMNSLKPEDTAVYYCAAEARVGYHFQILDYWGQGTQVTVSS	high polyreactivity
QVQLVESGGGLVQAGGSLRLSCAASGFIFSVNTMGWYRQAPGKERELVAAISSSSGRTYYADSVKGRFTISRDNAKNTVYLQMNSLKPEDTAVYYCAVLYRWFGAYETYDYLGQGTQVTVSS	high polyreactivity
QVQLVESGGGLVQAGGSLRLSCAASGFIFSWYAMGWYRQAPGKERELVAAISASGTSTYYADSVKGRFTISRDNAKNTVYLQMNSLKPEDTAVYYCAAEFVTEYLYGFVYEYDSWGQGTQVTVSS	low polyreactivity
QVQLVESGGGLVQAGGSLRLSCAASGFIFSWYAMGWYRQAPGKERELVAAISKRGGSTYYADSVKGRFTISRDNAKNTVYLQMNSLKPEDTAVYYCAADRLPSGSLVEYWGQGTQVTVSS	high polyreactivity
QVQLVESGGGLVQAGGSLRLSCAASGFIFSYYAMGLYRQAPGKERELVAAINWTGGSTYYADSVKGRFTISRDNAKNTVYLQMNSLKPEDTAVYYCAADSHLRGRSEDYWGQGTQVTVSS	high polyreactivity
QVQLVESGGGLVQAGGSLRLSCAASGFIFSYYAMGWYRQAPGKERELVAAISSSGSRTYYADSVKGRFTISRDNAKNTVYLQMNSLKPEDTAVYYCNARTTSGWGQGTQVTVSS	high polyreactivity
QVQLVESGGGLVQAGGSLRLSCAASGFIFSYYAMGWYRQAPGKERELVAANSSSGGTTYADSVKGRFTISRDNAKNTVYLQMNSLKPEDTAVYYCARVQYWFYKPMYYWGQGTQVTVSS	high polyreactivity
QVQLVESGGGLVQAGGSLRLSCAASGFIFSYYAMGWYRQAPGKERELVADISRGGSTYYADSVKGRFTISRDNAKNTVYLQMNSLKPEDTAVYYCNAYIRYVVNGYRVYSFDYWGQGTQVTVSS	high polyreactivity
QVQLVESGGGLVQAGGSLRLSCAASGFIFSYYAMGWYRQAPRKERELVAAISKRGGGTYYADSVKGRFTISRDNAKNTVYLQMNSLKPEDTAVYYCNKDGGYGTGSSREYDSWGQGTQVTVSS	high polyreactivity
QVQLVESGGGLVQAGGSLRLSCAASGFIFTDYAMGWYIQAPGKERELVAGISGSGGRTYYADSVKGRFTISRDNAKNTVYLQMNSLKPEDTAVYYCAARGVPWLWYFRGMYWGQGTQVTVSS	high polyreactivity
QVQLVESGGGLVQAGGSLRLSCAASGFIFTDYAMGWYRQAPGKEREFVAAIDWSGGNTYYADSVKGRFTISRDNAKNTVFLQMNSLKPEDSAVYYCAASGSAREYDYWGQGTQVTVSS	low polyreactivity
QVQLVESGGGLVQAGGSLRLSCAASGFIFTFYAMGWYRQAPGKERELVAAISSSGGSTYYADSVKGRFTISRDNAKNTVYLQMNSLKPEDTAVYYCNAVRYHARSGWSDYWGQGTQVTVSS	high polyreactivity
QVQLVESGGGLVQAGGSLRLSCAASGFIFTHNAMGWYRQAPGKERELVAAISRSGGRTYYADSVKGRFTISRDNAKNTVYLQMNSLKPEDTAVYYCAKDAYVYGMGYWGQGTQVTVSS	high polyreactivity
QVQLVESGGGLVQAGGSLRLSCAASGFIFTKNAIGWYRQAPGKERDLVDAISGTGGSTYYADSVKGRFTISRDNAKNTVYLKMNSLKPEDTAVYYCASRRYRLFSTGGQPGYYWGQGTQVTVSS	high polyreactivity

Sequence	polyreactivity (PSR sort gate)
QVQLVESGGGLVQAGGSLRLSCAASGFIFTKYTMAWYRQAPGKERELVAAITGRGTSTSADSVKGRFTISRDNAKNTVYLQMNSLKPEDTAVYYCAAVGWFADFLFSDINGYYWGQGTQVTVSS	low polyreactivity
QVQLVESGGGLVQAGGSLRLSCAASGFIFTLYAMGWYRQAPGKESELVASISSGGSTNYADSVKGRFTISRDNAKNTVYFQMNSLKPEDTAVYYCAAYYYFKSDRFSGRYGRYYWGQGTQVTVSS	high polyreactivity
QVQLVESGGGLVQAGGSLRLSCAASGFIFTLYTMGWYRPAPGKERELVAAIDKKGSTYYADSVKGRFTISRDNAKNTVYLQMNSLKPEDTAVYYCAADDRYRGNREDYWGQGTQVTVSS	low polyreactivity
QVQLVESGGGLVQAGGSLRLSCAASGFIFTRYAMGWYRQAPGKERELVAAISASGGSTYYADSVKGRFTISRDNAKNTVYLQMNSLKPEDTAVYYCAAVPYRYTYDYWGQGTQVTVSS	high polyreactivity
QVQLVESGGGLVQAGGSLRLSCAASGFIFTRYAMGWYRQAPGKERELVAAITRSGGRTYYADSVKGRFTISRDNAKNTVYLQMNSLKPEDTAVYYCAAEGSVGLYGLIMHYWGQGTQVTVSS	high polyreactivity
QVQLVESGGGLVQAGGSLRLSCAASGFIFTSYAMGWYRQAPGKERELVAAISKRGGSTYYADSVKGRFTISRDNAKNTVYLQMNSLKPEDTAVYYCATRYPQPYSPGYTYDYWGLGTQVTVSS	high polyreactivity
QVQLVESGGGLVQAGGSLRLSCAASGFIFTVYAMGWSRQAPGKERELVAAISRGGGSTSYADSVKGRFTISRDNAKNTVYLQMNSLKPEDTAVYYCNAKYKYSRGYDYWGQGTQVTVSS	high polyreactivity
QVQLVESGGGLVQAGGSLRLSCAASGFIFTWYDMGWYRQAPGKERELVAAISRSGGSTYYADSVKGRFTISRDNAKNTVYLQMNSLKPEDTAVYYCIVYRSKKRYGWGEDDYWGQGSQVTVSS	high polyreactivity
QVQLVESGGGLVQAGGSLRLSCAASGFIFTWYTMGWSRQAPGKERELVAAITSGGNTNYADSVKGRFTISRDNAKNTVYLQMNSLKPEDTSVYYCALGYLASRLKFAKYDYWGQGTQVNVSS	high polyreactivity
QVQLVESGGGLVQAGGSLRLSCAASGFIFTYNDMGWYRQAPGKERELVASISWDGGRTYYADSVKRRFTISRDNAKNTVYLQMNSLKPEDTADYYWDKRLGGSPIQARGDYWGQCTQVTVSS	low polyreactivity
QVQLVESGGGLVQAGGSLRLSCAASGFIFTYYAMGWYRQAPGKERELVAAIRRGGNTYYADSVKGRFTISRDNAKNTVYLQMNSLKPEDTAVYYCAASAGPRASYYYWGQGTQVTVSS	high polyreactivity
QVQLVESGGGLVQAGGSLRLSCAASGFIFTYYAMGWYRQAPGKERELVAAISSSGGRTAYADSVKGRFTISRDNAKNTVYLQMNSLKPEDTAVYFCNARGTYRVANYDYWGQGTQVTVSS	high polyreactivity
QVQLVESGGGLVQAGGSLRLSCAASGFIFVDYAMGWYRQAPGKERELVAAISSSGSTTYADSVKGRFTISRDNAKNIVYLQMNSLKPEDTAVYYCAAGLPRVLKDATFDYWGQGTQVTVSS	low polyreactivity
QVQLVESGGGLVQAGGSLRLSCAASGFIFVDYDMGWYRQAPGKERELVAAITDSGTSTYYADSVKGRFTISRDNAKNTVYLQMNSLKPEDTAVYYCNTDVSPSFDYWGQGTQVTVSS	low polyreactivity
QVQLVESGGGLVQAGGSLRLSCAASGFIFVGNAMGGYRQAPGKERELVAAITSTDNTTYADSVKGRFTISRDNAKNTVYLQMNSLKPEDTAVYYCNARGYPYLYGYDYWGQGTQVTVSS	low polyreactivity
QVQLVESGGGLVQAGGSLRLSCAASGFIFVLYSMGWYRQAPGKERELVAGITGSTDTYYADSVKGRFTISRDNAKNTVYLQMNSLKPEDTAVYYCAAGRLRIWYDSWGQGTQVTVSS	low polyreactivity
QVQLVESGGGLVQAGGSLRLSCAASGFIFVNKAMGWYRQAPGKERELVATISRGGSTNYADSVKGRFTISRDNAKNTVYLQMNSLKPEDTAVYYCNARRSVKVYGVDYWGQGTQVTVSS	high polyreactivity
QVQLVESGGGLVQAGGSLRLSCAASGFIFVQNVMGWYRQAPGKERELVAAITWRGTSTYYADSVKGRFTISRDNAKNTVYLLMNSLKPEDTAVYDWNVDLQEDCEEYDYWGQGTQVTVSS	low polyreactivity
QVQLVESGGGLVQAGGSLRLSCAASGFIFVQYAMGWYRQAPGKERELVAAISKGGGSTYYADSVKGRFTISRDNAKNTVYLQMNSLKPEDTAVYDCNADKVTRVTYWDDSWGQGTQVTVSS	high polyreactivity
QVQLVESGGGLVQAGGSLRLSCAASGFIFVRYAMGWYRQAPGKERELVAAITKGGGRTYYADSVKGRFTISRDNAKNTVYLQMNSLKPEDTAVYYCATAGAHGRERDYWGQGTQVTVSS	high polyreactivity
QVQLVESGGGLVQAGGSLRLSCAASGFIFVSKAMGWSRQAPGKERELVAAITTGGSTNYADSVKGRFTISRDNAKYTVYLLMNSLKPEDTAVYYCAADGRYSTYIYLHDYWGQGTQVTVSS	low polyreactivity
